Data: US20240384003A1 (PRECISION BIOLOGICS, published 2024)

Biological target: T1, CEACAM5-D2-312* (human, UniProt P06731 35-311)
T1 sequence (looked up): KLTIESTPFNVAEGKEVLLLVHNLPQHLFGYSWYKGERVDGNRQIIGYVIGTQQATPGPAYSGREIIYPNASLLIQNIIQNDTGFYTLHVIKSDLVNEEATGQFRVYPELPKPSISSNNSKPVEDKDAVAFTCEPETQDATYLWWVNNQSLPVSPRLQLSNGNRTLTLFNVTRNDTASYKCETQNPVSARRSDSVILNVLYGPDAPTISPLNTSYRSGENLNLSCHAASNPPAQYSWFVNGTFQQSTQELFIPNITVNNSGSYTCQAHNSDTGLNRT
Experiment: ELISA on truncated CEACAM5 from transfected-cell supernatant
Method: Different truncated C-terminus CEACAM6 gene constructs were designed as illustrated in FIG. 13. […] Different truncated C-terminus CEACAM5 gene constructs were designed as illustrated in FIG. 15. The procedure for the expression of the truncated C-terminus constructs was the same as to the method described above. All deletions were transfected into HEK293T cells, harvest the cell pellet and/or supernatant after 48-72 hours. Supernatant binding activity was quantitated by ELISA.

- binding result: no binding
B1: NEO-201 (antibody, human IgG1, kappa, V domains shown)
VH: QVQLVQSGAEVKKPGASVKVSCKASGYTFTDYAMHWVRQAPGQRLEWMGLISTYSGDTKYNQNFQGRVTMTVDKSASTAYMELSSLRSEDTAVYYCARGDYSGSRYWFAYWGQGTLVTVSS
VL: DIQMTQSPSSLSASVGDRVTITCQASENIYGALNWYQRKPGKSPKLLIYGASNLATGMPSRFSGSGSGTDYTFTISSLQPEDIATYYCQQVLSSPYTFGGGTKLEIKR
notes: also called H16C3-Abb*
